# Test results as given in publication doi:10.1101/2024.11.14.623549 (bioRxiv, 2024).
# B1: Clathrin Light Chain (CLC), residues 1-233 (natural protein, Saccharomyces cerevisiae, UniProt P17891 1-233, looked up)
# chain: MSEKFPPLEDQNIDFTPNDKKDDDTDFLKREAEILGDEFKTEQDDILETEASPAKDDDEIRDFEEQFPDINSANGAVSSDQNGSATVSSGNDNGEADDDFSTFEGANQSTESVKEDRSEVVDQWKQRRAVEIHEKDLKDEELKKELQDEAIKHIDDFYDSYNKKKEQQLEDAAKEAEAFLKKRDEFFGQDNTTWDRALQLINQDDADIIGGRDRSKLKEILLRLKGNAKAPGA
# modifications: RED-NHS dye label
# B2: Sla1 SH3_3 domain (Sla1 residues 355-414) (domain or fragment, Saccharomyces cerevisiae)
# chain: GAMAKKRGIVQYDFMAESQDELTIKSGDKVYILDDKKSKDWWMCQLVDSGKSGLVPAQFIEPVR
# modifications: also: RED-NHS dye label, site not given here
# B3: Sla2ccRTH (Sla2 residues 351-968) (domain or fragment, Saccharomyces cerevisiae, UniProt P33338 351-968, looked up)
# chain: ATAQMQPDFWANQQAQFANEQNRLEQERVQQLQQQQAQQELFQQQLQKAQQDMMNMQLQQQNQHQNDLIALTNQYEKDQALLQQYDQRVQQLESEITTMDSTASKQLANKDEQLTALQDQLDVWERKYESLAKLYSQLRQEHLNLLPRFKKLQLKVNSAQESIQKKEQLEHKLKQKDLQMAELVKDRDRARLELERSINNAEADSAAATAAAETMTQDKMNPILDAILESGINTIQESVYNLDSPLSWSGPLTPPTFLLSLLESTSENATEFATSFNNLIVDGLAHGDQTEVIHCVSDFSTSMATLVTNSKAYAVTTLPQEQSDQILTLVKRCAREAQYFFEDLMSENLNQVGDEEKTDIVINANVDMQEKLQELSLAIEPLLNIQSVKSNKETNPHSELVATADKIVKSSEHLRVDVPKPLLSLALMIIDAVVALVKAAIQCQNEIATTTSIPLNQFYLKNSRWTEGLISAAKAVAGATNVLITTASKLITSEDNENTSPEQFIVASKEVAASTIQLVAASRVKTSIHSKAQDKLEHCSKDVTDACRSLGNHVMGMIEDDHSTSQQQQPLDFTSEHTLKTAEMEQQVEILKLEQSLSNARKRLGEIRRHAYYNQDDD
# Experiments:
# [1] = target: B3; assay: mass photometry
# Sla2cc ΔSite1 (Δ515-546) = target: T1, Sla2cc ΔSite1 (Δ515-546) (Saccharomyces cerevisiae, UniProt P33338 296-767, Δ515-546); assay: MST
# T1 sequence (looked up): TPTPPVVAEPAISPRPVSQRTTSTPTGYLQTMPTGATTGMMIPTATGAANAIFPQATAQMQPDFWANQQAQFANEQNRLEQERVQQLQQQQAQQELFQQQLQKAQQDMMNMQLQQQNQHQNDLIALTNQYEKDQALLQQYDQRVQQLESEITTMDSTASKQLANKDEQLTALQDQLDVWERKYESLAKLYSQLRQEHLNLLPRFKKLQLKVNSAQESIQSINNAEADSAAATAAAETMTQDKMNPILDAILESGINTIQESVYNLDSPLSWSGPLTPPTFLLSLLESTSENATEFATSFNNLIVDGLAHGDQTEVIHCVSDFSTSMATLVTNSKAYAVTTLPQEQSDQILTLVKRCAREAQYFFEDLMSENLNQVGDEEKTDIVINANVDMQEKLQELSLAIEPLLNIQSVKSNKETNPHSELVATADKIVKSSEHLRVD
# [2] = target: T2, Sla2:270-350 (complete IDR of Sla2) (Saccharomyces cerevisiae, UniProt P33338 270-350); assay: MST
# T2 sequence (looked up): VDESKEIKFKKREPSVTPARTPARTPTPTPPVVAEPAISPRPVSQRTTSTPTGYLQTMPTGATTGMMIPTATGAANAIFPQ
# [3] = target: B1; assay: MST
# mass photometry = target: the molecule itself; assay: mass photometry
# [4] = target: B2; assay: MST
binder,measurement,setting,value
"NusA conjugated to CLC (NusA-CLC) (natural protein, Saccharomyces cerevisiae, UniProt P17891 1-233, looked up) MSEKFPPLEDQNIDFTPNDKKDDDTDFLKREAEILGDEFKTEQDDILETEASPAKDDDEIRDFEEQFPDINSANGAVSSDQNGSATVSSGNDNGEADDDFSTFEGANQSTESVKEDRSEVVDQWKQRRAVEIHEKDLKDEELKKELQDEAIKHIDDFYDSYNKKKEQQLEDAAKEAEAFLKKRDEFFGQDNTTWDRALQLINQDDADIIGGRDRSKLKEILLRLKGNAKAPGA",stoichiometry N,[1],1 NusA-CLC per Sla2 dimer
B1,binding result,Sla2cc ΔSite1 (Δ515-546),binds
B2,Kd,[2],0.9 µM
"Sla2cc (Sla2 residues 296-767), WildType (domain or fragment, Saccharomyces cerevisiae, UniProt P33338 296-767, looked up, RED-NHS dye label (only in the MST against CLC:70-140 and Pan1:777-987)) TPTPPVVAEPAISPRPVSQRTTSTPTGYLQTMPTGATTGMMIPTATGAANAIFPQATAQMQPDFWANQQAQFANEQNRLEQERVQQLQQQQAQQELFQQQLQKAQQDMMNMQLQQQNQHQNDLIALTNQYEKDQALLQQYDQRVQQLESEITTMDSTASKQLANKDEQLTALQDQLDVWERKYESLAKLYSQLRQEHLNLLPRFKKLQLKVNSAQESIQKKEQLEHKLKQKDLQMAELVKDRDRARLELERSINNAEADSAAATAAAETMTQDKMNPILDAILESGINTIQESVYNLDSPLSWSGPLTPPTFLLSLLESTSENATEFATSFNNLIVDGLAHGDQTEVIHCVSDFSTSMATLVTNSKAYAVTTLPQEQSDQILTLVKRCAREAQYFFEDLMSENLNQVGDEEKTDIVINANVDMQEKLQELSLAIEPLLNIQSVKSNKETNPHSELVATADKIVKSSEHLRVD",KD of Site 1 (higher affinity site),[3],~0.1 µM
same,KD of Site 2 (lower affinity site),[3],3 µM
B3,stoichiometry N,mass photometry,2
PVSTPARTPARTPTP [Sla2:283-297 peptide],Kd,[4],81.2 µM
